Binding result and Kd data for two molecules are collected here from publication PMC8718839 (iScience, 2021).

The series “crystal structure” concerns the molecule itself. The series can be described thus: crystal structure.
In the next series the target is T1, (ActRIIB)2-Fc (UniProt Q13705-1 19-137).
T1 sequence: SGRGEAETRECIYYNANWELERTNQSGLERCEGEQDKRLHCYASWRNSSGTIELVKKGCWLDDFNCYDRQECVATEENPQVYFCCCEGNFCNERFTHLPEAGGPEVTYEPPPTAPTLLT
Kind of series: SPR. In general terms: In SPR one partner is held on a chip, and binding of the other changes the refractive index at the surface.

The next series addresses T2, ActRIIB-Fc (UniProt Q13705 19-137).
T2 sequence: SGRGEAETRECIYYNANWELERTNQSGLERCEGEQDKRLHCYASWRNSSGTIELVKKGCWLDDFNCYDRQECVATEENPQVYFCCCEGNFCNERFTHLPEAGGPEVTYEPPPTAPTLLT
Kind of series: SPR.

Another series has as its target T3, ActRIIB-Alk4-Fc (human, UniProt Q13705;P36896).
T3 sequence 1: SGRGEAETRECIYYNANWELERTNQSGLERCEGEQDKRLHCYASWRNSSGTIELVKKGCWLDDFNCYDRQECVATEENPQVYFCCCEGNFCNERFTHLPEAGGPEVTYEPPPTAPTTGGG
T3 sequence 2: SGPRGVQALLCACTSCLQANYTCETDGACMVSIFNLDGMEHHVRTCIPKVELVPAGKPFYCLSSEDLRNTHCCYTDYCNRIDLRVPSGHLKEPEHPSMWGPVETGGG
The series can be described thus: SPR.

B1: GDF11 mature (ligand)
chain: NLGLDCDEHSSESRCCRYPLTVDFEAFGWDWIIAPKRYKANYCSGQCEYMFMQKYPHTHLVQQANPRGSAGPCCTPTKMSPINMLYFNDKQQIIYGKIPGMVVDRCGCS
As for B1, in “crystal structure”, the binding result is listed as “binds”. Also, the Kd (in general, a measure of binding affinity in units of concentration) amounted to 1.91 pM with (ActRIIB)2-Fc, 0.0147 nM in the series with ActRIIB-Fc and 0.00424 nM with ActRIIB-Alk4-Fc.

B2: Activin A mature (ligand)
chain: GLECDGKVNICCKKQFFVSFKDIGWNDWIIAPSGYHANYCEGECPSHIAGTSGSSLSFHSTVINHYRMRGHSPFANLKSCCVPTKLRPMSMLYYDDGQNIIKKDIQNMIVEECGCS
On to B2, for which the binding result in “crystal structure” is given as “binds”. For the same molecule, the dissociation constant (Kd) in the series with (ActRIIB)2-Fc was 12.5 pM; with ActRIIB-Fc, 0.108 nM; with ActRIIB-Alk4-Fc, 0.0304 nM.
